Here are results for two compounds from article PMC10540840, “PET imaging with [^68Ga]-labeled TGFβ-targeting peptide in a mouse PANC-1 tumor model” (Frontiers in Oncology, 2023).

Peptide text beside a SMILES is read from it. * marks the point of attachment. DOTA = O=C(O)CN1CCN(CC(=O)O)CCN(CC(=O)*)CCN(CC(=O)O)CC1; PEG3 = NCCOCCOCCOCCC(=O)O

In one data set the test system is PC3 cells. The experiment in a line: Cell uptake (internalization) assay in PC3 cells. The class given is cell-based. The following applies: 200 MBq/L, 0.5-5 h incubation, FCS-free medium, γ-counter, three series. As to the method: (§1) The method process for cell uptake assay of radiolabeled drug was as follows. First, the selected cell lines were inoculated into a 6-well plate, incubated for 48 h to achieve a cell coverage rate of approximately 80%–90% (1.2–2 × 10^6 cells/well), and replaced with 1 mL of fresh culture medium without fetal calf serum (FCS). Then, a certain amount of radionuclide-labeled drug (200 MBq/L) was added to the culture well and incubated for different times (0.5–5 h). The culture medium containing the drug was removed, and the cells were washed twice with 1 mL of phosphate-buffered saline (PBS) (pH 7.4). Cells were incubated with 1 mL of glycine HCl solution (1 M, pH 2.2) at room temperature for 10 min to remove surface binding, and the cells were washed with 2 mL of ice-cold PBS (collect washing solution for detection of binding amount). After that, 1.4 mL of lysis buffer (0.3 M of NaOH, 0.2% sodium dodecyl sulfate (SDS)) was used to lyse the cells and collect this lysate. With a γ-counter, the radioactive activity in the collected lysate was measured, and the %AD value was calculated. One mio (1 × 10^6) of cells was adopted for normalization, with the result representing the internalization uptake level of the tested radiopharmaceutical by this cell line. Each experiment was repeated three times independently, with three multiple wells set at each processing time point.

Data set [1] is described as follows: in vivo. Particulars: nude, mouse, iv, 1 mg/kg, total radioactivity. On the procedure:
Peptide conjugate P144-DOTA and the radiolabeled tracer [^68Ga]Ga-P144 were both administrated through tail vein injection. The chemical dose of [^68Ga]Ga-P144 was 1 mg/kg, and the radioactive dose was approximately 3.7 MBq in 200 μL per mouse. As a competitive blocker with the same target TGFβ, the dose of DOTA-P144 was 100 mg/kg (47.3 μmol/kg, 100 times the mass dose of the radiolabeled peptide conjugate), and the administration of this unlabeled peptide conjugate was followed after 10 min by 1 mg/kg of the radiolabeled tracer [^68Ga]Ga-P144. All the mice were deprived of food and water for 1 h before drug administration. Then, the mice were anesthetized with pentobarbital sodium (45 mg/kg) and scanned with microPET. […]
The tumor-bearing mice were anesthetized with pentobarbital sodium before microPET scanning. […] The body temperature of the mice was monitored by a rectal probe and kept at 37°C by a heated air stream. […] Images were processed and analyzed using PMOD4.2 software (PMOD Technologies Ltd., Zurich, Switzerland). […] Radioactivity values of the ROIs per unit volume were obtained, and the percentage of injected dose per tissue weight in gram (%ID/g) values of the different organs and tissues were calculated as follows: […]

Another data set has as its system PANC-1 cells. Put plainly: Cell uptake (internalization) assay in PANC-1 cells. Type of data set: cell-based, human. Particulars: 200 MBq/L, 0.5-5 h incubation, FCS-free medium, γ-counter, %AD per 1 × 10^6 cells, three series. On the procedure:
as §1

The nature of data set [2]: in vivo. The following applies: nude, mouse, iv, 1 mg/kg, total radioactivity. As to the method:
For biodistribution assay ex vivo, the PANC-1 tumor model mice were euthanized by pentobarbital sodium at 1 h after tracer administration. The blood was harvested via cardiac puncture, and the different organs/tissues were isolated, weighed, and counted on a γ-counter for radioactivity. The amount of the injected radiotracer was measured and used to determine the total number of counts of nuclei decay per minute (CPM) by comparison with a standard of known activity. The data were background- and decay-corrected and expressed as percentages of the injection dose per tissue weight in grams (%ID/g).
The source holds these as a separate data set.

The subject of data set [3] is PANC-1 tumor-bearing mice. Put plainly: in vivo. The following applies: mouse. On the procedure: (§2) Pancreatic cancer cell line PANC-1 was obtained from the ATCC, and cells were cultured in complete RPMI1640 medium supplemented with 10% fetal calf serum (Life Technologies, Carlsbad, CA, USA). One portion of the PANC-1 cells (~1 × 10^6) was injected subcutaneously below the anterior axillary of the nude mice to induce the mouse heterotopic tumor model. The tumor cells were suspended in a mixture (v/v, 1:1) of medium and Matrigel (Corning Life Sciences, Corning, NY, USA). The tumor xenografts were generally palpable within 10 days after injection. Xenograft tumor sizes of the model mice were measured every 3 days. Short and long tumor diameters, tumor volume, and body weight were measured. When the xenograft tumor grew to a volume of 150–200 mm^3, the mice were used for PET imaging study. A diagnostic tracer and drug were injected approximately 2 weeks after the establishment of the tumor model.
(§3) Peptide conjugate P144-DOTA and the radiolabeled tracer [^68Ga]Ga-P144 were both administrated through tail vein injection. The chemical dose of [^68Ga]Ga-P144 was 1 mg/kg, and the radioactive dose was approximately 3.7 MBq in 200 μL per mouse. As a competitive blocker with the same target TGFβ, the dose of DOTA-P144 was 100 mg/kg (47.3 μmol/kg, 100 times the mass dose of the radiolabeled peptide conjugate), and the administration of this unlabeled peptide conjugate was followed after 10 min by 1 mg/kg of the radiolabeled tracer [^68Ga]Ga-P144. All the mice were deprived of food and water for 1 h before drug administration. Then, the mice were anesthetized with pentobarbital sodium (45 mg/kg) and scanned with microPET. After the last scanning, the mice were anesthetized with 2% pentobarbital sodium at 65 mg/kg intraperitoneally and then executed by dislocation of their cervical vertebra, and the tissues were harvested for analysis.
(§4) The tumor-bearing mice were anesthetized with pentobarbital sodium before microPET scanning. Each mouse was intravenously injected with approximately 3.7 MBq (90–120 μCi) of [^68Ga]Ga-P144. After administration, the mice were scanned by a small animal PET system (Inveon, Siemens, Munich, Germany). The body temperature of the mice was monitored by a rectal probe and kept at 37°C by a heated air stream. The scanning time was set as follows: static PET scanning for 10 min and scanning energy window 350–650 keV at four time points (1 h, 2 h, 3 h, and 4 h) after the injection. MicroPET image reconstruction was performed using a 3D OSEM PSF algorithm with five iterations. Images were processed and analyzed using PMOD4.2 software (PMOD Technologies Ltd., Zurich, Switzerland). Regions of interest (ROIs) of the brain, heart, liver, lungs, kidney, muscle, and tumor were delineated. Radioactivity values of the ROIs per unit volume were obtained, and the percentage of injected dose per tissue weight in gram (%ID/g) values of the different organs and tissues were calculated as follows:
(§5) %ID/g=radiouptake in ROI(kBq/g)/injection dose(kBq)×100.

Data set [4] is described as follows: in vivo. Particulars: nude, mouse, iv, 1 mg/kg, total radioactivity. On the procedure:
as §2, §3, §4, §5
This is another data set of the same source.

Data set [5] is described as follows: Radio-HPLC radiochemical purity after standing at room temperature (stability). Type of data set: physicochemical. The following applies: C18, room temperature, 4 h after synthesis. On the procedure:
Radio-HPLC and radio-iTLC assays were conducted for the quality control of product [^68Ga]Ga-DOTA-P144 and free [^68Ga] ions. American alltech1500 high-performance liquid chromatography and online radioactive detector were used. Chromatographic column: YMC-Pack Pro C18 RS (5 μm, 250 mm × 4.6 mm). Mobile phase: A) water + 0.1% formic acid; B) acetonitrile. Method: 0 min, 95% A and 5% B; 1 min, 95% A and 5% B; 10 min, 70% A and 30% B; 18 min, 70% A and 30% B; 25 min, 95% A and 5% B; flow speed, 1 mL/min. The quality control standard was that the chemical and radiochemical purities of the products were greater than 95%. Radio-iTLC analytical quantification methods/conditions were as follows. The stationary phase was iTLC glass fiber (1 cm × 8 cm instant silica gel strip), and the developing solvent was 2 mM of sodium citrate/citric acid buffer solution (pH 6.5). performed according to General Rule 1401 in Chinese Pharmacopoeia (2020 Edition), the method for the determination of radioactive drugs, the Rf value of the radioactive peak of the product to be tested was approximately 0.1–0.4, and there was a single main peak under normal conditions. If there were impurities, especially free [^68Ga] ions, the corresponding peaks should appear at the Rf value of approximately 0.6–0.8. […]

A further data set relates to human glioblastoma cells. The following applies: ref [28]; cited from earlier work. From the text: TGFβ-specific blocking peptide P144 selected in this study was an analog of the essential structure for ligand recognition and binding in the extracellular domain of TGFβR3, which has high specificity and affinity to TGFβ ([36]). […] The doses of th ...

For the compound `CC[C@H](C)[C@H](NC(=O)[C@H](CO)NC(=O)[C@H](C)NC(=O)[C@H](CC(=O)O)NC(=O)[C@H](CC(C)C)NC(=O)[C@H](CO)NC(=O)[C@@H](NC(=O)CCOCCOCCOCCNC(=O)CN1CCN(CC(=O)O)CCN(CC(=O)O)CCN(CC(=O)O)CC1)[C@@H](C)O)C(=O)N[C@@H](Cc1c[nH]c2ccccc12)C(=O)N[C@@H](C)C(=O)N[C@@H](CCSC)C(=O)N[C@@H](CCSC)C(=O)N[C@@H](CCC(N)=O)C(=O)N[C@@H](CC(N)=O)C(=O)N[C@@H](C)C(N)=O` [[^68Ga]Ga-P144, metal not drawn] ({DOTA-PEG3}-TSLDASIWAMMQNA-NH2; N-terminus and C-terminus assumed), the “cell uptake ratio (non-specific cellular uptake)” value in the data set on PC3 cells is reported as “very low level”. Further, the tissue uptake at 1 h in the data set “in vivo [1]” was 5.36 ± 0.937 %ID/g; in “in vivo [2]” (ex vivo radioactive biodistribution in heart), 4.89 ± 0.899 %ID/g; in the data set “in vivo [2]” (ex vivo radioactive biodistribution in kidney), 2.98 ± 0.854 %ID/g; in “in vivo [2]” (ex vivo radioactive biodistribution in liver) it was 1.95 ± 0.717 %ID/g; in “in vivo [2]” (ex vivo radioactive biodistribution in lung), 3.16 ± 0.429 %ID/g; in the data set “in vivo [2]” (ex vivo radioactive biodistribution in tumors) it was 4.63 ± 1.22 %ID/g. Also, the tissue uptake at 1 h in the data set “in vivo [4]” (uptake in heart) amounted to 5.74 ± 1.68 %ID/g; in the data set “in vivo [4]” (uptake in kidneys) it was 3.32 ± 0.636 %ID/g; in “in vivo [4]” (uptake in liver), 4.01 ± 0.975 %ID/g; in “in vivo [4]” (uptake in lung) it was 3.56 ± 0.739 %ID/g; in “in vivo [4]” (uptake in tumors), 5.76 ± 1.21 %ID/g. In addition, the “cell uptake ratio (internalization)” value with PANC-1 cells is “high and persistent”. The compound also showed a tumor retention time in data set [3] above 4 h. Moreover, the tissue to tissue ratio at 1 h in “in vivo [4]” was found to be 3.44 ± 1.53. Besides, the tissue to tissue ratio at 4 h in “in vivo [4]” was 3.77 ± 1.18. The tissue uptake at 4 h in the data set “in vivo [4]” (uptake in heart) was 3.92 ± 0.891 %ID/g; in “in vivo [4]” (uptake in kidneys) it was 2.8 ± 0.281 %ID/g; in the data set “in vivo [4]” (uptake in liver) it was 2.91 ± 0.431 %ID/g; in the data set “in vivo [4]” (uptake in lung) it was 2.19 ± 0.206 %ID/g; in “in vivo [4]” (uptake in tumors), 6.02 ± 1.37 %ID/g. Besides, in data set [5], the “radiochemical purity after purification and placement at room temperature for 4 h” value was 98.87%.

Regarding TSLDASIWAMMQNA [P144], the “growth and proliferation of human glioblastoma cells” value in the data set on human glioblastoma cells is “significantly inhibit”.

The term tissue uptake denotes the percentage of the injected dose found per gram of tissue.
